Laboratory results: CN110404066A (QILU PHARMACEUTICAL CO LTD, dated 2019)

Experiments:
PD-1抗原 [1] = target: T1, PD-1抗原 (UniProt Q15116 25-167, limits assumed); assay: SPR (Biacore T200), antibody captured by anti-human Fc on CM5, PD-1 antigen as analyte, 1:1 model, first repeat
PD-1抗原 [2] = target: T1, PD-1抗原; assay: SPR (Biacore T200), antibody captured by anti-human Fc on CM5, PD-1 antigen as analyte, mean of two repeats
PD-1抗原 [3] = target: T1, PD-1抗原; assay: SPR (Biacore T200), antibody captured by anti-human Fc on CM5, PD-1 antigen as analyte, 1:1 model, second repeat

T1 sequence (Q15116 25-167 limits assumed): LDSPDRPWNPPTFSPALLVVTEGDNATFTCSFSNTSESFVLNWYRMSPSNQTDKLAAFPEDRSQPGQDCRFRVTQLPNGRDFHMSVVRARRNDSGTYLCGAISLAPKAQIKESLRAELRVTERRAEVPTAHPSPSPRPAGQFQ

Kd (PD-1抗原 [1]): 1.91 nM
Kd (PD-1抗原 [2]): 1.87 nM
Kd (PD-1抗原 [3]): 1.82 nM
B1: 抗人PD-1的单克隆抗体ZMR01 (antibody, V domains shown)
VH: QVQLVQSGAEVKKPGASVKVSCKASGYTFTNYWIHWVRQAPGQGLEWMGEIDPYDSYTNYNQKFKGRVTMTVDKSTSTVYMELSSLRSEDTAVYYCARPGFTYGGMDFWGQGTLVTVSS
VL: DIQMTQSPSSLSASVGDRVTITCKSSQSLFNSGNQKNYLAWYQQKPGKVPKLLIYGASTRDSGVPYRFSGSGSGTDFTLTISSLQPEDVATYYCQNDHYYPYTFGGGTKVEIK
